Data: US20100098708A1 (AstraZeneca / MedImmune, published 2010)
Values joined by “and” are separate entries in the source; they are usually repeats but may differ in a detail not shown here. Equal entries are not always repeated.

Each binder was assayed against F protein of RSV Long strain on infected HEp-2 cells (respiratory syncytial virus Long strain, UniProt P12568 26-574) (assay: cell-based or functional assay).
Sequence of F protein of RSV Long strain on infected HEp-2 cells (P12568 26-574): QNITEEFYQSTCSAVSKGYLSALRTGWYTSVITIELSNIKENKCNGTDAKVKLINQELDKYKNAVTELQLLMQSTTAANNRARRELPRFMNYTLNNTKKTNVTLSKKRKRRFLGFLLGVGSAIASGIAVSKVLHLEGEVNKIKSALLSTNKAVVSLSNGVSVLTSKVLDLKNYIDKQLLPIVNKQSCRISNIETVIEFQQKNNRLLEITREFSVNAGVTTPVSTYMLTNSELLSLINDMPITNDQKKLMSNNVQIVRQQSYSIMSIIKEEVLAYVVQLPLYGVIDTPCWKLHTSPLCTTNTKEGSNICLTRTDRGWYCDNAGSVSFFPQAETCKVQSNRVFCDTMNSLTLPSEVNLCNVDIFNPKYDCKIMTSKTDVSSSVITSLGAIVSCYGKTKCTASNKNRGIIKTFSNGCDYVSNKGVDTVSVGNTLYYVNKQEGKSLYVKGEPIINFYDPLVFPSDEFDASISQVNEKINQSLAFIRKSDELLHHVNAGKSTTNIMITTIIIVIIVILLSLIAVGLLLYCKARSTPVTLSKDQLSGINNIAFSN

Row | Binder | RSV microneutralization IC50
1 | P11d4 Fab (Fab, V domains shown, Fab) VH: QVTLRESGPALVKPTQTLTLTCTFSGFSLSTPGMSVGWIRQPPGKALEWLADIWWDGKKHYNPSLKDRLTISKDTSKNQVVLKVTNMDPADTATYYCARDMIFNWYFDVWGQGTTVTVSS VL: DIQMTQSPSTLSASVGDRVTITCSPSSRVGYMHWYQQKPGKAPKLLIYDTMRLASGVPSRFSGSGSGTEFTLTISSLQPDDFATYYCFQGSGYPFTFGGGTKVEIK | 0.292 µg/ml and 5.84 nM

The binders below were run against Bac-F (respiratory syncytial virus) (assay: BIAcore, (1:1)).
Sequence of Bac-F (respiratory syncytial virus) (P03420 26-524): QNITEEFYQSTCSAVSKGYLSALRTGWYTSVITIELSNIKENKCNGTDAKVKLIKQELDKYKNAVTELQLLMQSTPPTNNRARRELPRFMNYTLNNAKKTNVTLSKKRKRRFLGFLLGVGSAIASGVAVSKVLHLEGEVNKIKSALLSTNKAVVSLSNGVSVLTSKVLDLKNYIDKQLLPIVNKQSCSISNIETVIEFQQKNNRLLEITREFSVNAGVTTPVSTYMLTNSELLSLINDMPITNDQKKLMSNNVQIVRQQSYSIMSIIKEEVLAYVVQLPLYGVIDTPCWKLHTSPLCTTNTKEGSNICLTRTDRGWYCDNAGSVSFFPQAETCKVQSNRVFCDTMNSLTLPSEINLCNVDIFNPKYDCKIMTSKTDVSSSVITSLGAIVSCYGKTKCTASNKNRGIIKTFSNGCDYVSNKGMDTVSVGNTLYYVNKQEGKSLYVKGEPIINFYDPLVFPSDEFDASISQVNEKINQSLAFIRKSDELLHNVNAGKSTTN

Row | Binder | Kd [nM] | koff [s⁻¹] | kon [M⁻¹ s⁻¹] | number in parentheses after KD (ratio to palivizumab = 1) [fold]
2 | A4B4 IgG (antibody, V domains shown, IgG1/kappa) VH: QVTLRESGPALVKPTQTLTLTCTFSGFSLSTAGMSVGWIRQPPGKALEWLADIWWDDKKHYNPSLKDRLTISKDTSKNQVVLKVTNMDPADTATYYCARDMIFNFYFDVWGQGTTVTVSS VL: DIQMTQSPSTLSASVGDRVTITCSASSRVGYMHWYQQKPGKAPKLLIYDTFFLDSGVPSRFSGSGSGTEFTLTISSLQPDDFATYYCFQGSGYPFTFGGGTKVEIKR | 0.02 | 1.06e-05 | 434000 | 195

These binders were tested against RSV F protein (immobilised antigen of Example 6.1) (respiratory syncytial virus) (assay: BIAcore).
Sequence of RSV F protein (immobilised antigen of Example 6.1) (respiratory syncytial virus) (P03420 26-524): as the sequence (P03420 26-524) above

Row | Binder | koff | kon
3 | P11d4 Fab (Fab, V domains shown, Fab) VH: QVTLRESGPALVKPTQTLTLTCTFSGFSLSTPGMSVGWIRQPPGKALEWLADIWWDGKKHYNPSLKDRLTISKDTSKNQVVLKVTNMDPADTATYYCARDMIFNWYFDVWGQGTTVTVSS VL: DIQMTQSPSTLSASVGDRVTITCSPSSRVGYMHWYQQKPGKAPKLLIYDTMRLASGVPSRFSGSGSGTEFTLTISSLQPDDFATYYCFQGSGYPFTFGGGTKVEIK | 0.000717 s⁻¹ | 570000 M⁻¹ s⁻¹ and 572000 M⁻¹ s⁻¹
4 | A12a6 Fab (Fab, V domains shown, Fab) VH: QVTLRESGPALVKPTQTLTLTCTFSGFSLSTAGMSVGWIRQPPGKALEWLADIWWDGKKDYNPSLKDRLTISKDTSKNQVVLKVTNMDPADTATYYCARDMIFNFYFDVWGQGTTVTVSS VL: DIQMTQSPSTLSASVGDRVTITCSASSRVGYMHWYQQKPGKAPKLLIYDTFKLSSGVPSRFSGSGSGTEFTLTISSLQPDDFATYYCFQGSGYPFTFGGGTKVEIK | 0.00023 s⁻¹ | 743000 M⁻¹ s⁻¹
5 | A13c4 Fab (Fab, V domains shown, Fab) VH: QVTLRESGPALVKPTQTLTLTCTFSGFSLSTAGMSVGWIRQPPGKALEWLADIWWDGKKSYNPSLKDRLTISKDTSKNQVVLKVTNMDPADTATYYCARDMIFNFYFDVWGQGTTVTVSS VL: DIQMTQSPSTLSASVGDRVTITCSLSSRVGYMHWYQQKPGKAPKLLIYDTMYQSSGVPSRFSGSGSGTEFTLTISSLQPDDFATYYCFQGSGYPFTFGGGTKVEIK | 0.00028 s⁻¹ | 781000 M⁻¹ s⁻¹ and 735000 M⁻¹ s⁻¹
6 | A1e9 Fab (Fab, V domains shown, Fab; also called Ale9) VH: QVTLRESGPALVKPTQTLTLTCTFSGFSLSTAGMSVGWIRQPPGKALEWLADIWWDGKKHYNPSLKDRLTISKDTSKNQVVLKVTNMDPADTATYYCARDMIFNWYFDVWGQGTTVTVSS VL: DIQMTQSPSTLSASVGDRVTITCSLSSRVGYMHWYQQKPGKAPKLLIYDTFKLSSGVPSRFSGSGSGTEFTLTISSLQPDDFATYYCFQGSGYPFTFGGGTKVEIK | 0.000453 s⁻¹ | 790000 M⁻¹ s⁻¹
7 | P12f2 Fab (Fab, V domains shown, Fab) VH: QVTLRESGPALVKPTQTLTLTCTFSGFSLSTPGMSVGWIRQPPGKALEWLADIWWDDKKHYNPSLKDRLTISKDTSKNQVVLKVTNMDPADTATYYCARDMIFNFYFDVWGQGTTVTVSS VL: DIQMTQSPSTLSASVGDRVTITCSLSSRVGYMHWYQQKPGKAPKLLIYDTFYLSSGVPSRFSGSGSGTEFTLTISSLQPDDFATYYCFQGSGYPFTFGGGTKVEIK | 0.000282 s⁻¹ | 663000 M⁻¹ s⁻¹
8 | A13a11 Fab (Fab, V domains shown, Fab) VH: QVTLRESGPALVKPTQTLTLTCTFSGFSLSTAGMSVGWIRQPPGKALEWLADIWWDDKKHYNPSLKDRLTISKDTSKNQVVLKVTNMDPADTATYYCARDMIFNWYFDVWGQGTTVTVSS VL: DIQMTQSPSTLSASVGDRVTITCSPSSRVGYMHWYQQKPGKAPKLLIYDTYRHSSGVPSRFSGSGSGTEFTLTISSLQPDDFATYYCFQGSGYPFTFGGGTKVEIK | 0.00025 s⁻¹ | 735000 M⁻¹ s⁻¹
9 | 1X-493L1FR Fab (Fab, V domains shown, also called IX-493L1FR) VH: QVTLRESGPALVKPTQTLTLTCTFSGFSLSTSGMSVGWIRQPPGKALEWLADIWWDDKKDYNPSLKSRLTISKDTSKNQVVLKVTNMDPADTATYYCARSMITNWYFDVWGQGTTVTVSS VL: DIQMTQSPSTLSASVGDRVTITCSASSSVGYMHWYQQKPGKAPKLLIYDTSKLASGVPSRFSGSGSGTEFTLTISSLQPDDFATYYCFQGSGYPFTFGGGTKVEIK | 0.00065 s⁻¹ | 185000 M⁻¹ s⁻¹
10 | AFFF(1) Fab (Fab, V domains shown, Fab; also called AHH(1)) VH: QVTLRESGPALVKPTQTLTLTCTFSGFSLSTAGMSVGWIRQPPGKALEWLADIWWDDKKDYNPSLKSRLTISKDTSKNQVVLKVTNMDPADTATYYCARSMITNFYFDVWGQGTTVTVSS VL: DIQMTQSPSTLSASVGDRVTITCSASSSVGYMHWYQQKPGKAPKLLIYDTFKLASGVPSRFSGSGSGTEFTLTISSLQPDDFATYYCFQGSFYPFTFGGGTKVEIK | 0.000245 s⁻¹ and 0.000446 s⁻¹ and 0.000268 s⁻¹ | 212000 M⁻¹ s⁻¹ and 156000 M⁻¹ s⁻¹ and 186000 M⁻¹ s⁻¹
11 | AFFF(1) IgG (antibody, V domains shown, IgG1/kappa) VH: QVTLRESGPALVKPTQTLTLTCTFSGFSLSTAGMSVGWIRQPPGKALEWLADIWWDDKKDYNPSLKSRLTISKDTSKNQVVLKVTNMDPADTATYYCARSMITNFYFDVWGQGTTVTVSS VL: DIQMTQSPSTLSASVGDRVTITCSASSSVGYMHWYQQKPGKAPKLLIYDTFKLASGVPSRFSGSGSGTEFTLTISSLQPDDFATYYCFQGSFYPFTFGGGTKVEIKR | 0.000274 s⁻¹ and 0.000266 s⁻¹ and 0.000206 s⁻¹ | 108000 M⁻¹ s⁻¹ and 96000 M⁻¹ s⁻¹ and 124000 M⁻¹ s⁻¹
